Laboratory results: patent publication US20220242906A1

Biological target: elongation initiation factor 4E (eIF4E), P06730
Test: SPR (Biacore T100), eIF4E immobilised on CM5 chip, peptide as analyte
Details: remark: other sources report otherwise

Sequence of elongation initiation factor 4E (eIF4E), P06730 (P06730 2-217 limits assumed): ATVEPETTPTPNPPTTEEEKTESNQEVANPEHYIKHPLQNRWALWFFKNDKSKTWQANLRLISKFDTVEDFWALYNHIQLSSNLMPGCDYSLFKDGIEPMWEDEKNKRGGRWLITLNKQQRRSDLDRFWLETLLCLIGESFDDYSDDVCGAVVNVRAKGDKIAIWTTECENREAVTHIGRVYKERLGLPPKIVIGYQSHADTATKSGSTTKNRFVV

Binder | Kd
ACEMAFFQDCG (HELM PEPTIDE1{A.C.E.M.A.F.F.Q.D.C.G.[am]}$PEPTIDE1,PEPTIDE1,2:R3-10:R3$$$V2.0; SMILES CSCC[C@@H]1NC(=O)[C@H](CCC(=O)O)NC(=O)[C@@H](NC(=O)[C@H](C)N)CSSC[C@@H](C(=O)NCC(N)=O)NC(=O)[C@H](CC(=O)O)NC(=O)[C@H](CCC(N)=O)NC(=O)[C@H](Cc2ccccc2)NC(=O)[C@H](Cc2ccccc2)NC(=O)[C@H](C)NC1=O) [EE-2C] | 32 µM
ACAMGFFQDCG (HELM PEPTIDE1{A.C.A.M.G.F.F.Q.D.C.G.[am]}$PEPTIDE1,PEPTIDE1,2:R3-10:R3$$$V2.0; SMILES CSCC[C@@H]1NC(=O)[C@H](C)NC(=O)[C@@H](NC(=O)[C@H](C)N)CSSC[C@@H](C(=O)NCC(N)=O)NC(=O)[C@H](CC(=O)O)NC(=O)[C@H](CCC(N)=O)NC(=O)[C@H](Cc2ccccc2)NC(=O)[C@H](Cc2ccccc2)NC(=O)CNC1=O) [EE-2A] | 11 µM
